Test results reported in the RNAGym collection of RNA variant scans (doi:10.7554/elife.80360).

B1: Hairpin Ribozyme (parent)
chain: GUCCUCUUUCACGUGCGCGUGAAAGAGAGAAGUGAACCAGAGAAACACACGUUGUGGUAUAUUACCUGGUA

Variants of: B1
Test: self-cleavage, relative activity (ratio to wild type); higher = more cleavage; co-transcriptional
In the case of U55G U62A, the self-cleavage is reported as 0.104. For C4A G29C, the self-cleavage was 0.118. Variant A41U C48U has a self-cleavage of 0.132. Variant G1U G51A has a self-cleavage of 0.205. Variant G17C G51C has a self-cleavage of 0.668. In the case of A23C A39C, the self-cleavage is reported as 0.517. With C4A U9C the self-cleavage was 0.163. In the case of A39C, the self-cleavage is reported as 0.539. For A36C U58A, the self-cleavage was 0.391. Variant U8A U52C has a self-cleavage of 0.647. G19U C48A showed a self-cleavage of 0.135. With C18A G27U the self-cleavage was 0.332. C3A A24U gave a self-cleavage of 0.703. With A11U C66U the self-cleavage was 0.318. For G19C C66A, the self-cleavage was 0.238. C4G C37G showed a self-cleavage of 0.168. A45G G69C gave a self-cleavage of 0.171. Variant A45G G69U has a self-cleavage of 0.141. In the case of U14A G40A, the self-cleavage is reported as 0.317. Work on A41G U70A yielded a self-cleavage of 0.97. In the case of C6G A49U, the self-cleavage is reported as 0.107. A28C U62A gave a self-cleavage of 0.159. Variant G29C A59U has a self-cleavage of 0.207. Variant U7C U60G has a self-cleavage of 0.621. Variant U55G G57U has a self-cleavage of 0.222. With A24G G68U the self-cleavage was 0.273. G27A G29U showed a self-cleavage of 0.126. For A26C U63G, the self-cleavage was 0.0806. For G1C C10G, the self-cleavage was 0.247. In the case of C37A A39G, the self-cleavage is reported as 0.181. For U8G G56U, the self-cleavage was 0.169. C18U A23C showed a self-cleavage of 0.898. G25U U55G showed a self-cleavage of 0.195. U20G C46A gave a self-cleavage of 0.229. A59C A71U gave a self-cleavage of 0.156. Work on C3U A47C yielded a self-cleavage of 0.192. G1U A61G showed a self-cleavage of 0.041. U33A A44G gave a self-cleavage of 0.16. Work on A22G G32A yielded a self-cleavage of 0.0872. Work on A30G A47G yielded a self-cleavage of 0.0575. With G15A U55G the self-cleavage was 0.215. For A11C G17A, the self-cleavage was 0.759. For U8C U14G, the self-cleavage was 0.501. U14C G15A gave a self-cleavage of 0.825. U14C G15U showed a self-cleavage of 0.926. Variant C48A U55A has a self-cleavage of 0.228. For U5A U58A, the self-cleavage was 0.387. Variant A45G A47U has a self-cleavage of 0.113. In the case of A36G U62C, the self-cleavage is reported as 0.328. With A31G A39G the self-cleavage was 0.192. Variant G19A G54A has a self-cleavage of 0.51. G19C A61C showed a self-cleavage of 0.333. Work on A35C U52G yielded a self-cleavage of 0.728. C18A U63G gave a self-cleavage of 0.204. Variant G42A has a self-cleavage of 0.223. For C10A A24U, the self-cleavage was 0.584. A36C A39C gave a self-cleavage of 0.216. G29U G32C gave a self-cleavage of 0.105. For G21A A22U, the self-cleavage was 0.771. With U14C A39G the self-cleavage was 0.243. Work on U14C A39C yielded a self-cleavage of 0.475. Work on C10U G68A yielded a self-cleavage of 0.217. U9A A71G showed a self-cleavage of 0.707. In the case of U7A G68A, the self-cleavage is reported as 0.28. In the case of G1U U20A, the self-cleavage is reported as 0.1. Work on A61C C65U yielded a self-cleavage of 0.148. Variant A31U C50U has a self-cleavage of 0.24. With C4A G68U the self-cleavage was 0.111. U8C U33C gave a self-cleavage of 0.214. With A23U U58C the self-cleavage was 1.05. Variant C46G U62C has a self-cleavage of 0.249. Work on A39C C46G yielded a self-cleavage of 0.13. With C4U C16A the self-cleavage was 0.41. Variant C12G U70G has a self-cleavage of 0.615. For G17C A71G, the self-cleavage was 0.694. For C16A C66G, the self-cleavage was 0.249. A22U G34C showed a self-cleavage of 0.996. For C16A G42U, the self-cleavage was 0.276. Work on C37U A39U yielded a self-cleavage of 0.208. Work on U14C U33A yielded a self-cleavage of 0.0608. In the case of A35G C65U, the self-cleavage is reported as 0.227. Work on U14G A44G yielded a self-cleavage of 0.0802. Variant G15C A44U has a self-cleavage of 0.18. For C12G G34U, the self-cleavage was 1.16. With G21A A31G the self-cleavage was 0.424. Variant U14G G69U has a self-cleavage of 0.2. With A22U U62G the self-cleavage was 0.147. A41U G68A gave a self-cleavage of 0.504. A24G G51C gave a self-cleavage of 0.829. Work on C10U G51A yielded a self-cleavage of 0.881. C3U U5A gave a self-cleavage of 0.429. Work on A35U G68U yielded a self-cleavage of 0.177. In the case of A44G C65U, the self-cleavage is reported as 0.0694. For G13A A39C, the self-cleavage was 0.446. Work on C18A A35C yielded a self-cleavage of 1.2. For U5C A64U, the self-cleavage was 0.0907. For C10G A71C, the self-cleavage was 1.2. In the case of C46G U55C, the self-cleavage is reported as 0.151. For C10U C46U, the self-cleavage was 0.152. Variant G21U A31U has a self-cleavage of 0.0962. In the case of U8A G54A, the self-cleavage is reported as 0.396. Work on U20G G51C yielded a self-cleavage of 0.572. U5G C12G gave a self-cleavage of 0.239. With A22U G57C the self-cleavage was 0.175. C3G A41C gave a self-cleavage of 0.341. Work on G54U G69U yielded a self-cleavage of 0.182. Variant A11C G19U has a self-cleavage of 0.697. In the case of G56A A64C, the self-cleavage is reported as 0.0783. For A31C A39U, the self-cleavage was 0.183. In the case of A11G U33C, the self-cleavage is reported as 0.0978. C50U U60A showed a self-cleavage of 0.251. Work on G21C U62C yielded a self-cleavage of 0.334. With U5G U7G the self-cleavage was 0.171. G1C G51C showed a self-cleavage of 0.0946. Variant G1C G51U has a self-cleavage of 0.181. For G34C C50A, the self-cleavage was 1.1. Work on A22G G51U yielded a self-cleavage of 0.957. Work on G13A G21A yielded a self-cleavage of 0.594. For U2A G42U, the self-cleavage was 0.122. G56C C66G showed a self-cleavage of 0.209. G40C A61U showed a self-cleavage of 0.224. C6G C50A gave a self-cleavage of 0.14. C4G G17C gave a self-cleavage of 0.121. Variant U52C G57U has a self-cleavage of 0.207. C4G A49G showed a self-cleavage of 0.101. Work on U9A A24U yielded a self-cleavage of 0.466. In the case of C10U A26U, the self-cleavage is reported as 0.624. G13U U14A showed a self-cleavage of 0.88. With G17C G27U the self-cleavage was 0.116. Variant U8G G68U has a self-cleavage of 0.268. Variant U55G U58G has a self-cleavage of 0.206. G42C G57A gave a self-cleavage of 0.1. With U5G U67C the self-cleavage was 0.117. In the case of C12A U14C, the self-cleavage is reported as 0.71. A49U C66A gave a self-cleavage of 0.181. In the case of C38A C50U, the self-cleavage is reported as 0.15. Variant C3G G15C has a self-cleavage of 0.493. In the case of C3U U33C, the self-cleavage is reported as 0.167. Work on U2C U67G yielded a self-cleavage of 0.0822. Work on C18U G19U yielded a self-cleavage of 1.1. With G57U U62C the self-cleavage was 0.158. Work on C16G A59G yielded a self-cleavage of 0.17. For G19A A23C, the self-cleavage was 0.763. For U2A G32U, the self-cleavage was 0.155. C50A A61G showed a self-cleavage of 0.12. For G21C G25C, the self-cleavage was 0.238. Work on A23U A31U yielded a self-cleavage of 0.166. In the case of A11U A36C, the self-cleavage is reported as 0.619. C3A A26G showed a self-cleavage of 0.736. For A22U C46A, the self-cleavage was 0.187. In the case of G19U U20C, the self-cleavage is reported as 0.731. For A41U A71U, the self-cleavage was 1.15. For G15U U67A, the self-cleavage was 0.206. With C6U G56C the self-cleavage was 0.149. With U2C G27U the self-cleavage was 0.0539. Work on A61G U67G yielded a self-cleavage of 0.157. Variant G34U G51C has a self-cleavage of 1.49. For G25U G51U, the self-cleavage was 0.671. Variant G25U U53C has a self-cleavage of 0.689. In the case of G32U G42C, the self-cleavage is reported as 0.127. G40A U55G showed a self-cleavage of 0.121. For U53A G69A, the self-cleavage was 0.484. With U58G C66G the self-cleavage was 0.379. C4U G40A gave a self-cleavage of 0.147. For A47C C66G, the self-cleavage was 0.17. U5G U33A gave a self-cleavage of 0.17. Work on A22C C37U yielded a self-cleavage of 0.435.
